Kd data for one molecule are collected here from PMC11597096, “Unite and Conquer: Association of Two G-Quadruplex Aptamers Provides Antiproliferative and Antimigration Activity for Cells from High-Grade Glioma Patients”.

This data set concerns the target PARP1 (Homo sapiens, UniProt P09874 1-1014). Description: BLI; no competitor; kon 6.6 ± 0.34 (10^5 M-1 s-1), koff 1.28 ± 0.04 (printed as 10^2; 10^-2 s-1 implied); BLI: 1x PBS pH 7.4, 25 °C, SAX biosensors, biotinylated oligo loaded at 2 uM, PARP1 2.5-162 nM. Pull-down: 25 mM Tris-HCl pH 7.4, 150 mM NaCl, 1 mM EDTA, 1% NP-40, 5% glycerol, 0.1 mM DTT, room temperature. The following applies: protein: recombinant; label: 5'-biotin; bi-modular G4 with parallel chain stacking. (In general: Biolayer interferometry detects binding as a change in optical thickness at a sensor tip.)

Sequence of PARP1 (P09874 whole entry): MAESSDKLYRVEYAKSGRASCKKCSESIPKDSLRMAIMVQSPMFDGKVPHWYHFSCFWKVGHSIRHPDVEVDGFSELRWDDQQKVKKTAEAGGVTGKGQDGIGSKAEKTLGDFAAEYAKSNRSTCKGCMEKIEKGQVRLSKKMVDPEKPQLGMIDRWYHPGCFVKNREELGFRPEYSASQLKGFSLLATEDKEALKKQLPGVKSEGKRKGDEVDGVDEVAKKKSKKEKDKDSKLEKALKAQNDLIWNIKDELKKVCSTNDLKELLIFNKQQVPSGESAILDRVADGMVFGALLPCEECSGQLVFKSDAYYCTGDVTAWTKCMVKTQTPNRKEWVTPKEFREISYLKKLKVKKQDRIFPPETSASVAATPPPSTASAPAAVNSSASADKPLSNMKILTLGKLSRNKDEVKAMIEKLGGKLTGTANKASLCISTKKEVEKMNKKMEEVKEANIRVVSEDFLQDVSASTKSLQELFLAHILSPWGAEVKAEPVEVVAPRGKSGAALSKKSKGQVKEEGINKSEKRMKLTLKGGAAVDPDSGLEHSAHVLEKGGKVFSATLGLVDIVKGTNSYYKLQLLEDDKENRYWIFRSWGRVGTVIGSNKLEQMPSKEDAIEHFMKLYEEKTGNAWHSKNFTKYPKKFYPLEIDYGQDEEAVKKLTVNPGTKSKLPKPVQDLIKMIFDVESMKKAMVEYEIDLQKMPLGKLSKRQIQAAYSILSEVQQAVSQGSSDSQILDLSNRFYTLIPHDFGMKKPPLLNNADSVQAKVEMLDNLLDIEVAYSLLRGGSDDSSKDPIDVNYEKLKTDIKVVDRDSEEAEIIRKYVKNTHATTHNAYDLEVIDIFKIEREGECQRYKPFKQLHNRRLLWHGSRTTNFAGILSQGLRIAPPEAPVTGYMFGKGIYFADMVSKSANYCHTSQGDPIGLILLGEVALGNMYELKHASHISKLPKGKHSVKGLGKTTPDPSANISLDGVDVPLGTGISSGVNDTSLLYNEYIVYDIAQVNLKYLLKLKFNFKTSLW

For orientation: Kd means a measure of binding affinity in units of concentration. As for GGGTGGGTGGGTGGGTTTGGGTGGGTGGGTGGG (structured_DNA) [bi-(AID-1-T)], the Kd was 19.4 ± 0.7 nM.
